For orientation: stoichiometry N means a count of units in the complex or per binding partner.

We go through 2 substances from PMC4702668.

The target of experiment [1] is B41 SOSIP.664 trimer (HIV-1). Briefly: cross-linking.
Experiment [2] concerns the target BG505 SOSIP.664 trimer, unmodified (HIV-1). Briefly: cross-linking.

B41 SOSIP.664 trimer (complex) had a stoichiometry N in experiment [1] of 3. Substance “BG505 SOSIP.664 trimer, unmodified (complex)” had a stoichiometry N in experiment [2] of 3.
